Numbering of substitutions follows the chain as printed.

The record followed here is patent US6462189.

This assay concerns the target T1, Yeast ubiquitin (yeast, UniProt P0CG63 1-76).
T1 construct: mature; also called soluble ubiquitin; free ubiquitin
Kind of assay: clone obtained by phage panning on immobilized ubiquitin. Here is the method:
Libraries 2 and 4, described in Example VI above, were used to select ubiquitin-binding monobodies. Ubiquitin (1 μg in 50 μl sodium bicarbonate buffer (100 mM, pH 8.5)) was immobilized in the wells of a microtiter plate, followed by blocking with BSA (3% in TBS). Panning was performed as described above. In the first two rounds, 1 μg of ubiquitin was immobilized per well, and bound phage were elute with an acidic solution. From the third to the sixth rounds, 0.1 μg of ubiquitin was immobilized per well and the phage were eluted either with an acidic solution or with TBS containing 10 μM ubiquitin.

T1 sequence (P0CG63 1-76 limits assumed): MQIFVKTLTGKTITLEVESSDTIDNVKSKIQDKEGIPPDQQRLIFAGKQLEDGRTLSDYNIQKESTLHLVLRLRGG

B1: ubiquitin-binding monobody 422 (phage clone) (designed binder, not shown: large carriers; small tags and cut ends)
chain: VSDVPRDLEVVAATPTSLLISWDAPARWTLYYRITYGETGGNSPVQEFTVPGSKSTATISGLKPGVDYTITVYAVTRRWWWSKPISINYRT
notes: Library 4 clone obtained by panning on ubiquitin; no test of it as a single clone is reported
As to B1, the binding result is listed as “binds”.

B2: ubiquitin-binding monobody 424 (phage clone) (designed binder, not shown: large carriers; small tags and cut ends)
chain: B1 chain with A26G, R27Q, W28R, L30F, W81A
notes: as for B1
As for B2, the binding result is listed as “binds”.
